This is an account of results in US9296810 (Novartis, dated 2016).

This assay deals with Human Serum Albumin (HSA) (human, UniProt P02768 25-609). The assay is described as follows: yeast display selection and ELISA screen of the HSA library. The essentials: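 Single clones from the HSA library were expressed in E. coli overnight at 37 °C in OvernightExpress medium in 96 deep-well plates, freeze-thawed, lysed with lysozyme/EDTA then DNaseI, and cleared. Wells coated overnight at 4 °C with 1.0 µg/mL HSA and blocked with casein received 50 µL lysate for 1 hour, then were washed. Binding was detected with HRP anti-His-tag antibody and TMB substrate, read as optical density at 450 nm per clone extract.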
(In general: ELISA stands for enzyme-linked immunosorbent assay.)

Sequence of Human Serum Albumin (HSA) (P02768 25-609 limits assumed): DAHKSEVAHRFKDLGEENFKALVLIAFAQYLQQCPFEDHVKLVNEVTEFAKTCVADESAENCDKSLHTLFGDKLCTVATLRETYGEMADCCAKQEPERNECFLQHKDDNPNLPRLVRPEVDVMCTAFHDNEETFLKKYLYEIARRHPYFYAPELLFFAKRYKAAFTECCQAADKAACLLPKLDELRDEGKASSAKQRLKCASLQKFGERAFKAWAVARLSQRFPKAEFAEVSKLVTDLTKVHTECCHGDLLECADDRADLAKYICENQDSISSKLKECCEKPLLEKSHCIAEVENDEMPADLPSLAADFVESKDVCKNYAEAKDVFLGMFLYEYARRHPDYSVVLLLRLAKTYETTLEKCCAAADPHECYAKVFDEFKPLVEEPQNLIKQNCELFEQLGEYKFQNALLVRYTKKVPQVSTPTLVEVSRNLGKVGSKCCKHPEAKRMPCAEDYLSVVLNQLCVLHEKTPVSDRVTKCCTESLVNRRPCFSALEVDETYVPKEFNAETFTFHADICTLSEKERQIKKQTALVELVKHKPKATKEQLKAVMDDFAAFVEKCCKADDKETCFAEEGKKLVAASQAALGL

B1: SEQ ID NO 8 (designed binder)
chain: VSDVPRDLEVVAATPTSLLISWDAPAVTVRYYRITYGRTDAKSTRKEFTVPGSKSTATIGELKRGRDYTITVYAVTGRGDSPASSKPISINYRPEK
notes: used to build clone 87 and clone 89
In the case of B1, the binding result is “binds”.
